Reference: the supplement of paper PMC9170038

Test system: MS2 coat protein
Assay: apparent KD of MS2 coat protein; higher = weaker reporter binding
Settings: Eterna round: R107
Procedure, shortened: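 The buffer was 100 mM Tris-HCl pH 7.5 with 80 mM KCl and 4 mM MgCl2, used without or with constant ligand. In it, RNA switches transcribed on-chip from Illumina sequencing clusters were titrated with SNAP-549-labelled MS2 coat protein in twofold steps from 0.7 or 1.5 nM to 3 µM. Apparent KD for each design is the median of its normalised cluster binding-curve fits.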

[1] = input ligand: theophylline 20 uM
[2] = input ligand: tryptophan 2.4 mM
[3] = input ligand: theophylline 2 mM

Row | Sequence | apparent KD of MS2 coat protein (input ligand: arginine 13.2 mM) [nM] | apparent KD of MS2 coat protein [1] [nM] | apparent KD of MS2 coat protein [2] [nM] | apparent KD of MS2 coat protein (input ligand: none) [nM] | apparent KD of MS2 coat protein [3] [nM]
1 | ACUAGUUGUGCAGAUACCAGACAUGAGGAUCACCCAUGUUUGGGAUGUUCGCAUCUUCCUGUCCCUUGGCAGCUGUACAUCUAGA [Omei Theo B Exc v4] | 60.9 | 145 | 86.2 |  | 
2 | GCACCAGGUACGGAUACCAGAGCAAGCCAAAUGAGUGAACUUGAGGAUCACCCAAGUUUGCUCCCUUGGCAGCCGUACCUGGUGC [ETB NP+V+V2 #12 Diff Apt, +-Same Structure] | 7.29 | 11.4 | 8.49 | 9.39 | 29.2
3 | UGACAUUGCUCAGAUACCAGACACGAGGAUCACCCGUGUGCCAACAAGUACAAAAUAAAUGUCCCUUGGCAGCUGAGCAAUGUCU [TheoBX 24 #MS2Left #AlternativeMS2 #Theo22] | 11.9 | 16 | 12.2 | 12.2 | 26.1
4 | CAAUUUCGAAUAGAUACCAGCUGUCAUAAACACAUGAGGAUCACCCAUGUGCUUCUCGUCAGCCCUUGGCAGCUAUAACUAGAGC [theeternabot_sameState_MS2_Theo_B_40] | 15.4 | 16.5 | 16.1 |  | 
5 | UGUAUGUGAUCUGAUACCAGCGUUGAUAACCUGAGGAUCACCCUGGUAAGGCGAAAGCCACGCCCUUGGCAGCAGAUCGCAUACU | 158 | 79.1 | 239 |  | 19.8
6 | AAUAUAAAAUAAAGAAAAUUUAUAUCUGAUACCAGACUCUCAUGGGUCCCUUGGCAGCAGUAACAUGAGGAUCACCCAUGUAUUA [JR_Nu_SSTheophyA_Sub026] | 67.7 | 70.6 | 123 |  | 
7 | AUAACAUGAGGAUCACCCAUGUAAGGUGAUACCAGACGAAGUAAAGUCCCUUGGCAGCACAAGCAUAGUUGCGAAUAUUGAUAGA [JR_SSTheophyA_Sub005] | 264 | 532 | 632 |  | 
8 | UUUACAUGAGGAUCACCCAUGUGCCAUGAUACCAGACAUGAAAAUGUCCCUUGGCAGCAUGGGUGUAGCGUCGGGAAACCGACGC [Kohoutovice] | 97.5 | 545 | 14 | 35 | 909
9 | CUUGUUUGUGGAAGGAGCGCGAUUACAUAACAUGAGGAUCACCCAUGUAAGAAAUUAUUCAUGCAGGUAGGUCGCCAUUGGUGGG [Same State Arginine B GF8] | 64.1 | 53.1 | 30.6 | 62.2 | 23.7
10 | UGUAUGGACUGAAGGAGCGGUAGAUAACUUGAGGAUCACCCAGGUAAUAAGGCGAAAGCCUACCAGGUAGGUCGCAGUCCAUACU | 203 | 171 | 138 | 144 | 153
11 | AAUCGGGAUGGUCAAGGGUAUGCUAUAGAUACCAGUGCAGAGAAACACCCUUGGCAGCUGUGGAACAUGAGGAUCACCCAUGUAG [Theo A Ex t4] | 17.2 | 22.7 | 11.1 | 11.2 | 17.3
12 | AGCCCGUGAGCGGCCGCCACUGGAGGCUUUGCGCGACAUGAGGAUCACCCAUGUGUGCCCGGCGUUAGGACCGGGUUCACGUGGU [#1 Same State - Tryptophan B Attempt #19 (HarryS)] | 59.4 | 226 | 124 | 304 | 838
13 | CGCAACCCACAUGAGGAUCACCCAUGUGAAGGAGCGGCGAAUAAGCCAGGUAGGUCGCGCAUGAAUAAAUCAUGUAGGAAGCGAA [XArg-A 7 V1&2] | 18 | 27.8 | 22.5 | 20.1 | 28
14 | ACGUAAUGCAGAAGGAGCGUCAUUCUCUUACAUGAGGAUCACCCAUGUUACAUGGUUUUAUGACAGGUAGGUCGCUGAAGUACGA [JR_SSArginiB_Sub004] | 71.4 | 122 | 86.6 | 105 | 138
15 | UCGCAUUGCUGCGAUACCAGACAUGAGGAUCACCCAUGUACCAAGGUACGAAAAUAACAUGUCCCUUGGCAGCGCAGCAAUGCGU [MAT - Exclusion Theophlline B - Mod of Eli - D5] | 11.9 | 30.1 | 13.9 |  | 
16 | AGCAUGUUAUCAGAUACCAGACAUCUUUUAAUACAUAUUACAUGAGGAUCACCCAUGUUGGUCCCUUGGCAGCUGAAAUAUUUCA [JR_Nu_SSTheophyB_Sub023] | 124 | 223 | 360 |  | 
17 | AGCCGGAUUACGGCCGCCACUGUAGACGUGACGAAAGUCGCGUCAACAUGAGGAUCACCCAUGUACAGGACCGGGUGGUCCGGCG [Omei Trp B SS A v1] | 15 | 22.2 | 6.02 | 13.7 | 17.8
18 | GUAUGGAAACAUACUAUGGUAUCGUGAGAUACCAGUACAGAAAUGUACCCUUGGCAGCUCGCGCAUACAUGAGGAUCACCCAUGU [Ex Theophylline A 10] | 16.4 | 25 | 19.5 |  | 
19 | GUGAGGUUUGAUGAUACCAGAUGUGGUGGGAACAUGAGGAUCACCCAUGUUGUGAAACAGGUCCCUUGGCAGCAUGAGAGAGCUU [TheoB-ms2@32] | 30.5 | 89.3 | 52.7 |  | 

Row | Sequence | apparent KD of MS2 coat protein (input ligand: arginine 13.2 mM) [nM] | apparent KD of MS2 coat protein [1] [nM] | apparent KD of MS2 coat protein [2] [nM] | apparent KD of MS2 coat protein (input ligand: none) [nM] | apparent KD of MS2 coat protein [3] [nM]
20 | UGUAUGUGAUCUGAUACCAGAGUGAAUAAACCUGAGGAUCACCCUGGUACGCGAAAGCGACUCCCUUGGCAGCAGAUCGCAUACU | 127 | 108 | 156 | 163 | 21.8
21 | AGACAUGAGGAUCACCCAUGUAGUAUGGAUACCAGAUCCAGAUUUAUCCCUUGGCAGCUGUGGUACAGCGUUGGAUCGCUCCUAG [Exclusion - Theophylline A (Freestyle 12)] | 22.3 | 34.6 | 27.8 |  | 
22 | GAUAGUUGAUGGGAUACCAGCCUACACAUGAGGAUCACCCAUGUGAUUCGUGUACGACUGGGCCCUUGGCAGCCCAUAUUGUGUA [#12 Same State - Theophylline B] | 46.1 | 202 | 128 |  | 
23 | UGUCCGUGAUCGGCCGCCACUCAACAAACCUGUGGAAACUGACAUGAGGAUCACCCAUGUUCUUGGAGGACCGGGAUUGCUUCGA [theeternabot_sameState_MS2_Trp_B_4] | 16.7 | 19.7 |  |  | 18.5
24 | GUAUUAAGAAAACUUGAUACAGUGGGUGAACGAGGACCGGUACGGCCGCCACUCGGACAUGAGGAUCACCCAUGUCCAUGUGAAA [AstrosExyTryA#11] | 17.4 | 18.6 | 37.7 | 19.1 | 17.2
25 | GGAGUCGGCACGGCCGCCACUGCGGUGGUGUGACAUGAGGAUCACCCAUGUUGUCAUGCGGCCCUUAGGACCGGGUGGCGGUUCC [#1 Exclusion - Tryptophan B Attempt #22 (HarryS)] | 28.4 | 76.1 |  | 58.7 | 82.6
26 | UACUUGCUGACGGCCGCCACUAGAACAUGAGGAUCACCCAUGUAUGGCGGCCGUCAUGGGUGGACUAGGACCGGGUCAGCAAGAU [(Trp1)-(Ms2)-(T)'-(M)'-(Trp2)_Design7] | 11.4 | 14.6 |  |  | 11.7
27 | AGCAAGUUCGGAAGGAGCGGUACAUGAGGAUCACCCAUGUAUUCAAUCGUGAUCGGAACGUGCCAGGUAGGUCGCCGAAUGCGUC [XArg-B1] | 13.3 | 23.1 | 15 | 13.1 | 15.9
28 | ACGAACUGUAGUGAUACCAGACGUACAUGAGGAUCACCCAUGUUGUAAACAUGGUUAAUAGUCCCUUGGCAGCACAGUUAGUUCG [JR_ExcTheophyB_Sub002] | 105 | 612 | 695 |  | 
29 | GGGUCCGUCGGAAGGAGCGACAUGAGGAUCACCCAUGUCUCCCGUUAUGGGAGUUCUUUAGGUCAGGUAGGUCGCCGGCGGGUCC [#1 Exclusion - Arginine B Attempt #13 (Inspired by Omei)] | 65 | 196 | 119 | 141 | 164
30 | UUCGUAUUGUCGGCCGCCACUGCAACAUGAGGAUCACCCAUGUAAGAAUGGUUGUAAAUAUAUUACAGGACCGGGACAAUAGUAA [JR_ExcTryptoB_Sub018] | 16 | 24.1 |  |  | 23.4
31 | GAGUUCCUGAGAGAUACCAGUGAGGCCACAUGAGGAUCACCCAUGUCCCUCACUCCGGCCCACCCUUGGCAGCUCGAAAGAUAUU [Exclusion Theophylline B GF 22] | 11.3 | 16.7 | 12.1 |  | 
32 | GACAUGAGGAUCACCCAUGUUUGCUAUGAAGGAGCGUCGGAAAUGACAGGUAGGUCGCAUAGUAGGCCUUGUAUUUUGUGUGUUU [EAA #8] | 11.4 | 14.4 | 10.5 | 10.1 | 10.8
33 | ACGGAUCGGAAACGAUCCGCGGCGAGGGUGCGAGGACCGGUACGGCCGCCACUCGGCUAACAUGAGGAUCACCCAUGUCCGAAGA [ETA NuPACK+Vienna+Vienna2 #9] | 43.6 | 137 | 172 | 126 | 117
34 | GAGUUCCUGAGAGAUACCAGUGAAGCCACAUGAGGAUCACCCAUGUCCCUCACUCCGGCCCACCCUUGGCAGCUCGAAAGAUGGA [Exclusion Theophylline B GF 21] | 83.7 | 132 | 141 | 105 | 403
35 | ACACAUGAGGAUCACCCAUGUGCGCUGGAAGGAGCGCAGAAUCAUGCAGGUAGGUCGCCAGUGCCCUCUACUAAAGGGAAAAGAG [Diatsoceri] | 66.5 | 120 | 68.5 | 72 | 92.9
36 | CUCAUCCACGCGGCCGCCACUAUAUUGUGGUGUGAAUGUGACGUAUUACAUGAGGAUCACCCAUGUAGGACCGGGCGUGGAUGAG [#07 Exclusion Tryptophan B] | 55.8 | 86.2 |  |  | 93.5
37 | CCGCCCACGAAUGAUACCAGCUAAAAUCAUGUACCAGACACAUGAGGAUCACCCAUGUAAAGCCCUUGGCAGCGUACGCCACCCG [e-theoB-?] | 25.5 | 43.7 | 25.8 |  | 
38 | UGUAUGUGAUCUGAUACCAGCUAGCGGAAACGCAAGCUUGAGGAUCACCCAAGUGGAAUAAGCCCUUGGCAGCAGAUCGCAUACU [Denovo 5 #StaticStem #AlternativeMS2] | 215 | 197 | 376 | 266 | 15.8
